From paper PMC314469, “Protein Interaction Networks by Proteome Peptide Scanning” (PLoS Biology, 2004)

T1: Boi1 SH3 (BOI1_YEAST), P38041
T1 chain: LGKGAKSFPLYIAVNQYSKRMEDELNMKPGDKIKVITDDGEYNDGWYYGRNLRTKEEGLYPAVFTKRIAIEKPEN

T2: Myo5 SH3 (MYO5_YEAST), Q04439
T2 chain: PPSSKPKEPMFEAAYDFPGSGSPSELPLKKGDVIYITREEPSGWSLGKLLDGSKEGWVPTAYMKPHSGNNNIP

T3: Rvs167 SH3 (RV167_YEAST), P39743
T3 chain: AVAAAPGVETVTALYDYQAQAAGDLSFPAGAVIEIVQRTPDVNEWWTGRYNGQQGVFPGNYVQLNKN

T4: Yhr016c SH3 (YSC84_YEAST), P32793
T4 chain: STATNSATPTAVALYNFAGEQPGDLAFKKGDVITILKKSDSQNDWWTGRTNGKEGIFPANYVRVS

T5: Yfr024 SH3 (LSB3_YEAST), P43603
T5 chain: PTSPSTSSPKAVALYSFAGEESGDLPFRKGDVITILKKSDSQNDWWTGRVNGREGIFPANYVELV

T6: Boi2 SH3 (BOI2_YEAST), P39969
T6 chain: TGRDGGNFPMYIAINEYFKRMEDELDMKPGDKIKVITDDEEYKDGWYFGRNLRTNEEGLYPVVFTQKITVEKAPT


What was measured:
Assay in all cases: SPOT array
[1] = biological target: T1, Boi1 SH3 (BOI1_YEAST), P38041
[2] = biological target: T2, Myo5 SH3 (MYO5_YEAST), Q04439
[3] = biological target: T3, Rvs167 SH3 (RV167_YEAST), P39743
[4] = biological target: T4, Yhr016c SH3 (YSC84_YEAST), P32793
[5] = biological target: T5, Yfr024 SH3 (LSB3_YEAST), P43603
[6] = biological target: Sho1 SH3 (SHO1_YEAST), P40073
[7] = biological target: T6, Boi2 SH3 (BOI2_YEAST), P39969

Sho1 SH3 (SHO1_YEAST), P40073, sequence (P40073 295-366): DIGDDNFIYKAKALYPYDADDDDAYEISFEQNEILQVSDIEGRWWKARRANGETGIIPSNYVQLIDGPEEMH

Row | Binder | normalised SPOT signal, Boehringer light units (BLU); mean over the file's lines of this peptide [1] | normalised SPOT signal, Boehringer light units (BLU); mean over the file's lines of this peptide [2] | normalised SPOT signal, Boehringer light units (BLU); mean over the file's lines of this peptide [3] | normalised SPOT signal, Boehringer light units (BLU); mean over the file's lines of this peptide [4] | normalised SPOT signal, Boehringer light units (BLU); mean over the file's lines of this peptide [5] | normalised SPOT signal, Boehringer light units (BLU); mean over the file's lines of this peptide [6] | normalised SPOT signal, Boehringer light units (BLU); mean over the file's lines of this peptide [7]
1 | TPQSRFPPYSPLLP [YDR103W 267-280] | 57.1 | 443 | 28 | 34.2 | 33.7 | 34.7 | 7.5
2 | TTRKKKDPNAPKRA [YPR052C 11-24] | 416 | 275 | 78.7 | 54 | 388 | 108 | 40.3
3 | TSSLRKPPNGPSSV [YOR097C 144-157] | 29.2 | 144 | 455 | 37.6 | 121 | 99 | 17.3
4 | TTKHKAPPPPPPTA [YOR181W 179-192] | -0 | 1680 | 80 | 185 | 141 | 6.1 | 20.8
5 | TNSVKATPVPPTLA [YLR337C 365-378] | 53.6 | 168 | 34.8 | 23.7 | 7.5 | 50.1 | 2.7
6 | TSGYKYFPQFPQLK [YOR227W 765-778] | 95.1 | 235 | 58.8 | 20.3 | 134 | 36.2 | 32.8
7 | TSWARDNPSKPDIA [YHR209W 243-256] | 82.3 | 81.6 | 34.6 | 49.1 | 260 | 40.9 | 20.3
8 | TSISRISPQDPEAK [YDR109C 25-38] | 95.3 | 194 | 8.5 | 19 | 20.2 | 29.1 | -0
9 | TSSTKEKPTPPTTT [YIR019C 265-278] | 0 | 118 | 34.3 | 29.7 | 58.6 | 21 | 0.9
10 | TQMKRLKPVSPGLR [YEL050C 91-104] | 2890 | 1450 | 1960 | 634 | 4080 | 417 | 1140
11 | TQPVRKNPEAPARR [YOR042W 151-164] | 17200 | 232 | 410 | 159 | 3700 | 60.1 | 32.4
12 | TSNTKWTPITPSVI [YDR515W 74-87] | 29.7 | 142 | 35 | 21 | 36.9 | 18.6 | 6.7
13 | TSSSRRGPGRPRKD [YDR310C 200-213] | 418 | 620 | 269 | 65 | 969 | 416 | 23.6
14 | TTRRKKDPNAPKRR [YBR089C-A 17-30] | 424 | 999 | 141 | 19.6 | 341 | 106 | 13
15 | TQSGRMGPSEPKHR [YML020W 26-39] | 728 | 456 | 336 | 109 | 637 | 78.4 | 34.4
16 | TTNSRLSPSSPSSS [YJR038C 2-15] | 63 | 161 | 203 | 27.4 | 91.6 | 57.7 | 27.3
